Reference: US20050002959A1 (GlaxoSmithKline, published 2005)
“And” between values parts separate entries of the source, which are not always exact repeats. Equal values may be shown once.

B1: recombinant human IL4 (non-glycosylated, produced in E. coli) (ligand, UniProt P05112 25-153, looked up)
chain: HKCDITLQEIIKTLNSLTEQKTLCTELTVTDIFAASKNTTEKETFCRAATVLRQFYSHHEKDTRCLGATAQQFHRHKQLIRFLKRLDRNLWGLAGLNSCPVKEANQSTLENFLERLKTIMREKYSKCSS
notes: also called hIL4; hIL-4
B2: humanized 3B9 (IgG4 variant) (antibody, V domains shown)
VH: QVTLRESGPALVKPTQTLTLTCTFSGFSLSTSGMGVSWIRQPPGKGLEWLAHIYWDDDKRYNPSLKSRLTISKDTSRNQVVLTMTNMDPVDTATYYCARRETVFYWYFDVWGRGTPVTVSS
VL: IVMTQSPDSLAVSLGERATINCKASQSVDYDGDSYMNWYQQKPGQPPKLLIYAASNLESGVPDRFSGSGSGTDFTLTISSLQAEDVAVYYCQQSNEDPPRFGGGTKVEIKR
B3: humanized 3B9 (IgG1) (antibody, V domains shown)
VH: B2 VH
VL: B2 VL
notes: Human IgG1 heavy constant region and human kappa constant region; also called humanized MAb 3B9; 3B9 (Humanized)

Legend:
[1] = target: T1, IL4 receptor on the gibbon cell line MLA [ATCC TIB201] (gibbon); test: displacement of 125I-rhIL4 (83 pM) from gibbon MLA cells
T1 construct: whole, on cells; also called its receptor
Description: The ability of 3B9 to inhibit the binding of IL4 to its receptor was studied using ¹²⁵I-rhIL4 binding to the gibbon cell line, MLA [ATCC TIB201], that bears approximately 6000 receptors per cell. MLA cells were incubated with […] for 30 minutes at 37° C. Uptake of radioactivity was determined in a gamma counter after separation of cell bound ¹²⁵I-IL4 by centrifugation through an oil-gradient. Non-specific binding was determined by incubating in the presence of a 100-fold molar excess of unlabelled IL4 [Park et al, J. Exp. Med., 166:476-488 (1987)]. The IC₅₀ value for unlabeled IL4 in this assay was 22 pM when the amount of (added) IL4 was 83 pM. For intact murine (IgG) 3B9 the IC₅₀ was 63 pM, and 93 pM for the Fab fragment.

[2] = target: B1; test: cell-based or functional assay
[3] = target: B1; test: titration microcalorimetry, calculated for pH 7.4, 150 mM NaCl, 25° C. by the Gibbs-Helmholz equation
Description: (§1) The affinity and detailed thermodynamics of IL4 binding to humanized MAb 3B9 and murine 3B9 (Example 1) were determined by titration microcalorimetry.

[4] = target: B1; test: titration microcalorimetry, pH 7.4, 150 mM NaCl, 25° C.
Description: as §1

| Binder | IC50 [1] | IC50, B cell proliferation [2] | IC50, IgE synthesis [2] | IC50, T cell proliferation [2] | Kd [3] | IC50, CD23 induction [2] | -TΔS [4] | ΔG [4] | ΔH [4] |
| --- | --- | --- | --- | --- | --- | --- | --- | --- | --- |
| B1 | 22 pM |  |  |  |  |  |  |  |  |
| B2 |  | 79 pM | 406 pM | 40 pM |  |  |  |  |  |
| B3 |  |  | 54 pM and 35 pM and 83 pM | 44 pM and 30 pM and 56 pM | 11 pM | 333 pM | 8.2 kcal/mol IL4 | -13.6 kcal/mol IL4 | -21.8 kcal/mol IL4 |
